Source: US20240417482A1 (CONCEPT TO MEDICINE BIOTECH, published 2024)
Positions count from the first letter of the chain named. Like-named read-outs stand apart in the source and are kept apart here. One block for each molecule: values may come before it.

Assays:
[1] = molecular target: human 4-1BB expressed on cells (human) (UniProt Q07011); test: flow cytometry on HEK293-4-1BB cells, PE anti-human IgG, MFI
human 4-1BB-His protein [2] = molecular target: T1, human 4-1BB-His protein (human, UniProt Q07011 24-186); test: ELISA, plate coated with human 4-1BB-His at 0.5 ug/ml, anti-human IgG-HRP detection, OD450 (panel Human 4-1BB ELISA)
T1 construct: Recombinant His-tagged protein; also called human 4-1BB-his tag; recombinant 4-1BB protein; not shown: His tag
Target sequence in this assay (Q07011 24-186 limits assumed): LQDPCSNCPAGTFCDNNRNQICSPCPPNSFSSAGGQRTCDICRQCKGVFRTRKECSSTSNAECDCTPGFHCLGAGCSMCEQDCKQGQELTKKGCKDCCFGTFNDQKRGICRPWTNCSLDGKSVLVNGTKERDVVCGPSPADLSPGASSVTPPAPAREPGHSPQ

human 4-1BB-His protein [3] = molecular target: T1, human 4-1BB-His protein; test: SPR, Biacore T200, antibody captured on Protein A chip, human 4-1BB-His as analyte
Experimental: The binding of the humanized antibodies to recombinant human 4-1BB protein (human 4-1BB-his tag) was tested by Biacore using a capture method. […] A serial dilution of human 4-1BB-his tag protein was injected over captured antibody for 30 s at a flow rate of 10 μl/min. The antigen was allowed to dissociate for 360 s. All the experiments were carried out on a Biacore T200.

human 4-1BB-His protein [4] = molecular target: T1, human 4-1BB-His protein; test: as above; remark: listed apart in the source
Experimental: A serial dilution of human 4-1BB-his tag protein was injected over captured antibody for 30 s at a flow rate of 30 μl/min. The antigen was allowed to dissociate for 360 s. All the experiments were carried out on a Biacore T200. Data analysis was carried out using the Biacore T200 evaluation software.

[5] = molecular target: T2, cynomolgus 4-1BB-His protein (cynomolgus, UniProt A9YYE7 24-186); test: ELISA, plate coated with cynomolgus 4-1BB-His, anti-human IgG-HRP
T2 construct: Recombinant His-tagged protein; also called cyno 4-1BB antigen; not shown: His tag
T2 sequence: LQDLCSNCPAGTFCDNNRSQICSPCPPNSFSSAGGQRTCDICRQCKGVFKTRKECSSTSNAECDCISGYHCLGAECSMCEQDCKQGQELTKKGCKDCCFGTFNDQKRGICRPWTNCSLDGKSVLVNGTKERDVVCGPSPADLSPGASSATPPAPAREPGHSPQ
Experimental: (§1) Microtiter plates were coated with cynomolgus 4-1BB-His protein at 0.5 μg/ml in PBS, 100 μl/well at 4° C. overnight, then blocked with 150 μl/well of 1% BSA. […] The plates were washed with PBS/Tween and then incubated with Anti-Human IgG (H&L) (GOAT) Antibody Peroxidase Conjugated for 30 mins at 37° C. After washing, the plates were developed with TMB substrate and analyzed by spectrophotometer at OD 450 nm.

human OX40 protein = molecular target: T3, human OX40 protein (human, UniProt P43489 29-214, limits assumed); test: ELISA, plate coated with human OX40 0.5 µg/ml
T3 construct: Coated protein in ELISA
T3 sequence (looked up): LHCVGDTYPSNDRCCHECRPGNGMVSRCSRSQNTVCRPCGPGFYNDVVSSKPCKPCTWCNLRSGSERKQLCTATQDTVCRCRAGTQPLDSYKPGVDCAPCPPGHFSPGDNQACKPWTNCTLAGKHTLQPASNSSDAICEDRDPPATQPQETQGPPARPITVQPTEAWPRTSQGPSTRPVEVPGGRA
Experimental: as §1, with “Briefly, microtiter” for “Microtiter”, “human CD40 protein or human OX40” for “cynomolgus 4-1BB-His”

mouse 4-1BB-His protein [6] = molecular target: T4, mouse 4-1BB-His protein (mouse, UniProt P20334 24-187); test: ELISA, plate coated with mouse 4-1BB-His 0.5 µg/ml
T4 construct: Recombinant His-tagged protein; also called mouse 4-1BB antigen; not shown: His tag
T4 sequence (looked up): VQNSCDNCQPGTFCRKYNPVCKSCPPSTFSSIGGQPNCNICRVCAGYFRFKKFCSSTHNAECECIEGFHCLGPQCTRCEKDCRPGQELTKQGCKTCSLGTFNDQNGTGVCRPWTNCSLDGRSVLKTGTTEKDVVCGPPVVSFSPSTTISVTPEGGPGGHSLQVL
Experimental: as §1, with “mouse” for “cynomolgus”

human CD40 protein = molecular target: T5, human CD40 protein (human, UniProt P25942 21-193); test: ELISA, plate coated with human CD40 0.5 µg/ml
T5 construct: Coated protein in ELISA
Experimental: as §1, with “Briefly, microtiter” for “Microtiter”, “human CD40 protein or human OX40” for “cynomolgus 4-1BB-His”

human 4-1BB-His protein [7] = molecular target: T1, human 4-1BB-His protein; test: ELISA, plate coated with human 4-1BB-His, anti-human IgG-HRP
Experimental: as §1, with “Briefly, microtiter” for “Microtiter”, “human” for “cynomolgus”

mouse 4-1BB-His protein [8] = molecular target: T4, mouse 4-1BB-His protein; test: ELISA, plate coated with mouse 4-1BB-His, anti-human IgG-HRP
Experimental: as §1, with “mouse” for “cynomolgus”

Sequence of human 4-1BB expressed on cells (human) (Q07011 24-255): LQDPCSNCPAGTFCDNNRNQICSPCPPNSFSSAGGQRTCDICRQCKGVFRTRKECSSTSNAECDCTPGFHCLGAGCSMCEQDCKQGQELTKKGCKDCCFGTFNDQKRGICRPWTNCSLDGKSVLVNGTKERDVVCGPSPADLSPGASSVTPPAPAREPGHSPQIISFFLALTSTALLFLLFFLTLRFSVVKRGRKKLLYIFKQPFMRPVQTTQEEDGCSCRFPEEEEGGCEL
T5 sequence (P25942 21-193 limits assumed): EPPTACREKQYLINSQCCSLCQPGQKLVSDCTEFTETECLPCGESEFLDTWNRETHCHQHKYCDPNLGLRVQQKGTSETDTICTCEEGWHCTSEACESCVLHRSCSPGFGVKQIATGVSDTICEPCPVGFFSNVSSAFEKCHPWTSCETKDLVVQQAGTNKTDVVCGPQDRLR

Molecule: Urelumab (antibody)
- EC50 (read off the curve) [1]: 2 nM
- EC50 (read off the curve) (human 4-1BB-His protein [2]): 10 ng/mL

B1: B31-V3 humanized antibody (VHH)
VHH: QVQLVESGGGLVQPGGSLRLSCAASGDIFSIMFWYRQAPGKQREYVAHITSNGRTNYADSVTGRFTISRDNNKNTLYLQMNSLRAEDTAVYYCAADDATNTRTYWGQGTLVTVSS
notes: Humanized VHH captured on a Protein A chip; also called B31 VHH-V3
- Kd (human 4-1BB-His protein [3]): 13.6 nM
- koff (human 4-1BB-His protein [3]): 0.00716 s⁻¹
- kon (human 4-1BB-His protein [3]): 526000 M⁻¹ s⁻¹

B4: B31-V6 humanized antibody (VHH)
VHH: B1 VHH with A23S, N72S, A95R
notes: Humanized VHH captured on a Protein A chip; also called B31 VHH-V6
- Kd (human 4-1BB-His protein [3]): 6.58 nM
- koff (human 4-1BB-His protein [3]): 0.00156 s⁻¹
- kon (human 4-1BB-His protein [3]): 237000 M⁻¹ s⁻¹

B5: B31-V2 humanized antibody (VHH)
VHH: B1 VHH with A23S, A47S, N72S
notes: Humanized VHH expressed in 293F cells and captured on a Protein A chip; also called B31 VHH-V2
- Kd (human 4-1BB-His protein [3]): 13.1 nM
- koff (human 4-1BB-His protein [3]): 0.0068 s⁻¹
- kon (human 4-1BB-His protein [3]): 517000 M⁻¹ s⁻¹

B7: B16-V2 humanized antibody (VHH)
VHH: EVQLVESGGGLVQPGGSLRLSCAASGFTFSYYAIGWFRQAPGKEREGVSCISSSDGSTYYADSVKGRFTISRDNSKNTLYLQMNSLRAEDTAVYYCATDTTTRCPIWSYYVESDYWGQGTLVTVSS
notes: Humanized VHH; also called B16 VHH-V2
- Kd (human 4-1BB-His protein [3]): 1930 nM
- koff (human 4-1BB-His protein [3]): 0.0898 s⁻¹
- kon (human 4-1BB-His protein [3]): 46500 M⁻¹ s⁻¹

B8: B16 chimeric mAb (VHH)
VHH: B7 VHH with E1Q, F29L, S30D, S75A, L79V, R87K, A88P, L121Q
notes: Alpaca VHH tested as 'chimeric mAb'
- Kd (human 4-1BB-His protein [4]): 21.5 nM
- koff (human 4-1BB-His protein [4]): 0.00739 s⁻¹
- kon (human 4-1BB-His protein [4]): 343000 M⁻¹ s⁻¹
- EC50 [5]: 19.5 ng/mL
- binding result (human OX40 protein): no binding
- binding result (human CD40 protein): no binding
- EC50 (mouse 4-1BB-His protein [8]): 16.3 ng/mL
- EC50 (human 4-1BB-His protein [7]): 10.6 ng/mL

B9: B125-V2 humanized antibody (VHH)
VHH: B7 VHH with T28A, Y31D
notes: Humanized VHH; also called B125 VHH-V2
- Kd (human 4-1BB-His protein [3]): 3070 nM
- koff (human 4-1BB-His protein [3]): 0.0266 s⁻¹
- kon (human 4-1BB-His protein [3]): 8670 M⁻¹ s⁻¹

Continued, values first:

- Kd (human 4-1BB-His protein [3]): 4.74 nM
- koff (human 4-1BB-His protein [3]): 0.00545 s⁻¹
- kon (human 4-1BB-His protein [3]): 1.15e+06 M⁻¹ s⁻¹
B2: B31-V4 humanized antibody (VHH)
VHH: B1 VHH with N72S, L76M, N81D
notes: Humanized VHH captured on a Protein A chip; also called B31 VHH-V4

- Kd (human 4-1BB-His protein [3]): 4.97 nM
- koff (human 4-1BB-His protein [3]): 0.00646 s⁻¹
- kon (human 4-1BB-His protein [3]): 1.3e+06 M⁻¹ s⁻¹
B3: B31-V5 humanized antibody (VHH)
VHH: B1 VHH with A38P, P39Q, N81D
notes: Humanized VHH captured on a Protein A chip; also called B31 VHH-V5

- Kd (human 4-1BB-His protein [4]): 3.16 nM
- koff (human 4-1BB-His protein [4]): 0.0048 s⁻¹
- kon (human 4-1BB-His protein [4]): 1.52e+06 M⁻¹ s⁻¹
- EC50 [5]: 4.06 ng/mL
- EC50 (read off the curve) [1]: 3 nM
- binding result (human OX40 protein): no binding
- binding result (mouse 4-1BB-His protein [6]): no binding
- binding result (human CD40 protein): no binding
- EC50 (human 4-1BB-His protein [7]): 2.42 ng/mL
B6: B31 chimeric mAb (VHH)
VHH: QVQLVESGGGLVQAGGSLRLSCAASGDIFSIMFWYRQPQGKQREYVAHITSNGRTNYADSVTGRFTISRGNNDNTMYLQMDNLKPQDTAVYYCAADDATNTRTYWGQGTQVTVSS
notes: Alpaca VHH tested as 'chimeric mAb' expressed in 293F cells, purified by protein G, detected with anti-human IgG and captured on Protein A; also called B31 chimeric antibody

- Kd (human 4-1BB-His protein [4]): 21 nM
- koff (human 4-1BB-His protein [4]): 0.00818 s⁻¹
- kon (human 4-1BB-His protein [4]): 390000 M⁻¹ s⁻¹
- EC50 [5]: 3.54 ng/mL
- EC50 (read off the curve) [1]: 3 nM
- binding result (human OX40 protein): no binding
- binding result (human CD40 protein): no binding
- EC50 (mouse 4-1BB-His protein [8]): 4.42 ng/mL
- EC50 (human 4-1BB-His protein [7]): 2.06 ng/mL
B10: B125 chimeric mAb (VHH)
VHH: B7 VHH with E1Q, T28A, Y31D, S75A, L79V, R87K, A88P, L121Q
notes: as for B8

- Kd (human 4-1BB-His protein [3]): 2560 nM
- koff (human 4-1BB-His protein [3]): 0.0408 s⁻¹
- kon (human 4-1BB-His protein [3]): 15900 M⁻¹ s⁻¹
B11: B210-V3 humanized antibody (VHH)
VHH: B7 VHH with F27L, D55G, G56R, Y59N, Y109N
notes: Humanized VHH; also called B210 VHH-V3

- Kd (human 4-1BB-His protein [4]): 90.4 nM
- koff (human 4-1BB-His protein [4]): 0.00352 s⁻¹
- kon (human 4-1BB-His protein [4]): 38900 M⁻¹ s⁻¹
- EC50 [5]: 3.91 ng/mL
- binding result (human OX40 protein): no binding
- binding result (human CD40 protein): no binding
- EC50 (mouse 4-1BB-His protein [8]): 402 ng/mL
- EC50 (human 4-1BB-His protein [7]): 2.51 ng/mL
B12: B210 chimeric mAb (VHH)
VHH: EVQLVESGGGLVQPGGSLRLSCAASGLSLDYYAIGWFRQAPGKEREGVSCISSSGRSTNYADSVKGRFTISRDNAKNTVYLQMNSLKPEDTADYYCATDTTTRCPIWSNYVESDYWGQGTQVTVSS
notes: as for B8

- Kd (human 4-1BB-His protein [3]): 765 nM
- koff (human 4-1BB-His protein [3]): 0.041 s⁻¹
- kon (human 4-1BB-His protein [3]): 53700 M⁻¹ s⁻¹
B13: B210-V2 humanized antibody (VHH)
VHH: B7 VHH with D55G, G56R, Y59N, Y109N
notes: Humanized VHH; also called B210 VHH-V2

- Kd (human 4-1BB-His protein [4]): 0.526 nM
- koff (human 4-1BB-His protein [4]): 0.000546 s⁻¹
- kon (human 4-1BB-His protein [4]): 1.04e+06 M⁻¹ s⁻¹
- EC50 [5]: 4.81 ng/mL
- binding result (human OX40 protein): no binding
- binding result (mouse 4-1BB-His protein [6]): no binding
- binding result (human CD40 protein): no binding
- EC50 (human 4-1BB-His protein [7]): 5.2 ng/mL
B14: B164 chimeric mAb (VHH)
VHH: EVQLVESGGGLVQAGGSLRLSCAASGSIFSYMFWYRQPQGKQREYVAHITSGGRTNYADSVTGRFTISRGNNDNTMYLQMNNLKPEDTAVYYCAADDAVYTDRTYWGQGTQVTVSS
notes: as for B8
